T1: FMOD (Bos taurus, UniProt P13605)
T1 construct: FMOD was isolated from bovine articular cartilage; from tissue; host or cells: bovine articular cartilage
T1 sequence (P13605 19-376): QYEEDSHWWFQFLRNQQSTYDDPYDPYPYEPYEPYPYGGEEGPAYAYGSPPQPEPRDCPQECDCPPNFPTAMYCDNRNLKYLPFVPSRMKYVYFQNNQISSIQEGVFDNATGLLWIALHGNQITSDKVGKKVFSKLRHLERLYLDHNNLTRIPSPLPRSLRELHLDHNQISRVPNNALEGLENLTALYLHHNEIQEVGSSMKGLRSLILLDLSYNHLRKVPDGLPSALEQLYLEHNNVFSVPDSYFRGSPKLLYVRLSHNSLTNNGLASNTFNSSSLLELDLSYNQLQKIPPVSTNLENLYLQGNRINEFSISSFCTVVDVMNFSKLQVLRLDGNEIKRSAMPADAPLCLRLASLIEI


Columns and labels:
[1] = system: necrotic Jurkat T cells; assay: Flow cytometry binding to necrotic cells; assay type: cell-based; settings: 10 μg/ml
Method: Jurkat T cells (ATCC), were grown in RPMI, supplemented with glutamine, penicillin, streptomycin and 10% (v/v) heat inactivated FCS (all from Invitrogen). Necrosis was induced by heat whereby the cells were brought to a concentration of 10^6 per ml and incubated at 56° C. for 30 minutes in RPMI 1640 without FCS (Trouw et al. (2005) J. Exp. Med. 201, 1937-1948).
Binding of FHCCP6-8 variants to necrotic cells was analyzed using flow cytometry. Protein binding was analyzed by incubating cells with varying concentrations of the FHCCP6-8 variants (0 to 10 μg/ml) in FACS binding buffer (10 mM HEPES, 150 mM NaCl, 5 mM KCl, 1 mM MgCl2, 1.8 mM CaCl2), with shaking for 30 minutes at room temperature. After washing twice in the same buffer, cells were stained with goat anti-FH polyclonal antibodies (Quidel) for 30 minutes at room temperature. This was followed by matched FITC-labelled secondary antibodies (Dako).

[2] = Microtitre plate assay: biotinylated-4IS heparin binding to immobilized proteins
Method: Alternatively, the unlabelled FHCCP6-8(H384), FHCCP6-8(Y384) and mutant proteins (i.e., K370A, R386A, K387A in the context of the FHCCP6-8(H384) construct) were adsorbed at 1 μg/ml in PBS onto microtitre plates (Nunc Maxisorb, Kastrup, Denmark) and their ligand-binding activities at pH 7.3 were determined using biotinylated-4IS heparin essentially as described in Mahoney et al. (2005) ibid. Plate assays were carried out in 20 mM HEPES, 130 mM NaCl, 0.05% (v/v) Tween-20, pH 7.3 and the level of bound heparin determined as described above for the biotinylated proteins.
In these plate assays all data points were determined in quadruplicate from each of two independent experiments.

[3] = target: T1, FMOD; assay: Protein/protein binding assay with coated FMOD; set-up: species or system bovine
Method: FMOD was isolated from bovine articular cartilage (Heinghrd et al., (1986) J. Biol. Chem. 261, 13866-13872) and recombinant CRP was obtained from Calbiochem. Deglycosylated FMOD was prepared by treatment with N-glycosiadase F (Roche Applied Science) as previously described (Sjöberg et al. (2005) J. Biol. Chem. 280, 32301-32308).
CRP or FMOD was coated overnight at 4° C. onto microtiter plates (Maxisorp, Nunc) at a concentration of 10 μg/ml in 75 mM sodium carbonate buffer, pH 9.6. Wells treated only with coating buffer or 1% (w/v) BSA (Sigma) in coating buffer (for the assays involving FMOD) were used as negative controls. Between each step the wells were washed extensively with 50 mM Tris-HCl, 150 mM NaCl, 0.1% (v/v) Tween 20, pH 7.5. All wells were blocked with 1% (w/v) BSA (Sigma) in phosphate buffered saline (Invitrogen) for 1 hour at 37° C. […] The amount of bound protein was assessed using a goat polyclonal anti-FH antibody (Quidel, Cat # A312) followed by HRP-labeled anti-goat secondary antibodies (Dako) and the OPD development kit (Dako). Detection of biotinylated protein was performed using a StreptABComplex/HRP-kit from Dako, and in both cases the absorbance at 490 nm was measured to quantify protein binding.

| Molecule | binding to necrotic cells relative to the other variant [1] | binding to 4IS heparin relative to FHCCP6-8(H384) [2] | binding to immobilized FMOD relative to the other variant ([3]; biotinylated FHCCP6-8 variants, all concentrations tested) | affinity for FMOD compared to H384 variant ([3]; direct binding assay) |
| --- | --- | --- | --- | --- |
| FHCCP6-8(H384): recombinant protein of Factor H CCPs 6-8, H384 allotype, with N-terminal non-authentic glycine (SEQ ID NO: 1) (protein, listed as Homo sapiens, VARIANT (1)...(188) Protein sequence of the FHCCP6-8 (H384) construct) MGTLKPCDYPDIKHGGLYHENMRRPYFPVAVGKYYSYYCDEHFETPSGSYWDHIHCTQDGWSPAVPCLRKCYFPYLENGYNQNHGRKFVQGKSIDVACHPGYALPKAQTTVTCMENGWSPTPRCIRVKTCSKSSIDIENGFISESQYTYALKEKAKYQCKLGYVTADGETSGSITCGKDGWSAQPTCI | binds necrotic cells better | – | – | – |
| FHCCP6-8(Y384): recombinant Factor H CCPs 6-8, Y384 variant obtained by site-directed mutagenesis (SEQ ID NO: 3) (protein, listed as Homo sapiens, VARIANT (1)...(188) FHCCP6-8 (Y384 allotype of mature Factor H)) MGTLKPCDYPDIKHGGLYHENMRRPYFPVAVGKYYSYYCDEHFETPSGSYWDHIHCTQDGWSPAVPCLRKCYFPYLENGYNQNYGRKFVQGKSIDVACHPGYALPKAQTTVTCMENGWSPTPRCIRVKTCSKSSIDIENGFISESQYTYALKEKAKYQCKLGYVTADGETSGSITCGKDGWSAQPTCI | – | bind less well | significantly stronger signals | affinity is increased |

Reference: patent publication US7829301B2, “Screening assays for binding antagonists of the AMD-associated variant of factor H (H384)” (The University of Manchester, priority 2006, dated 2010)
